Experimental data: US9958461B2, “Detection of protein to protein interactions” (THE GOVERNING COUNCIL OF THE UNIVERSITY OF TORONTO, priority 2013, dated 2018)

Tests used:
[1] = biological target: T1, EGFR-L858R (Homo sapiens, UniProt P00533, L858R); test: MaMTH EGFR-interactor screen, lentiviral preys against EGFR-L858R bait (interaction score); type: cell-based; conditions: MaMTH interaction score of prey with EGFR-L858R bait
T1 construct: with the advantage of testing full-length integral membrane proteins; (GGGGS)2 linker-Cub (human ubiquitin aa 35-76)-GAL4(1-147)-mNFkB(364-550) (C); expressed in transfected cells
In short: (§1)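 5×GAL4UAS-luciferase HEK293T reporter cells were lentivirally infected with preys (MOI ~0.3-0.4) and puromycin-selected ≥48 h. They were then transfected in triplicate with the EGFR bait, and luciferase was read 24 h later. Score is fold-change over averaged negative-control preys; >1 denotes interaction.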

[2] = system: EGFR-Wt; test: MaMTH EGFR-interactor screen, lentiviral preys against EGFR-wildtype bait (interaction score); type: cell-based, human; conditions: ratio of EGFR-Wt mean to EGFR-L858R mean interaction score
In short: as §1

[3] = biological target: T2, EGFR-Wt (Homo sapiens, UniProt P00533); test: as above; type: cell-based; conditions: MaMTH interaction score of prey with EGFR-Wt bait, mean
T2 construct: with the advantage of testing full-length integral membrane proteins; (GGGGS)2 linker-Cub (human ubiquitin aa 35-76)-GAL4(1-147)-mNFkB(364-550) (C); expressed in transfected cells
In short: as §1

B1: CAV1 (protein, UniProt Q03135 2-178, looked up)
Caveolin-1: SGGKYVDSEGHLYTVPIREQGNIYKPNNKAMADELSEKQVYDAHTKEIDLVNRDPKHLNDDVVKIDFEDVIAEPEGTHSFDGIWKASFTTFTVTKYWFYRLLSALFGIPMALIWGIYFAILSFLHIWAVVPCIKSFLIEIQCISRVYSIYVHTVCDPLFEAVGKIFSNVRINLQKEI
EGFR-L858R mean [1]: 2.14
Wt/L858R [2]: 0.87
EGFR-Wt mean [3]: 1.86

B2: ANKS1A (protein, UniProt Q92625 2-1134, looked up)
Ankyrin repeat and SAM …: GKEQELLEAARTGHLPAVEKLLSGKRLSSGFGGGGGGGSGGGGGGSGGGGGGLGSSSHPLSSLLSMWRGPNVNCVDSTGYTPLHHAALNGHKDVVEVLLRNDALTNVADSKGCYPLHLAAWKGDAQIVRLLIHQGPSHTRVNEQNNDNETALHCAAQYGHTEVVKVLLEELTDPTMRNNKFETPLDLAALYGRLEVVKMLLNAHPNLLSCNTKKHTPLHLAARNGHKAVVQVLLDAGMDSNYQTEMGSALHEAALFGKTDVVQILLAAGTDVNIKDNHGLTALDTVRELPSQKSQQIAALIEDHMTGKRSTKEVDKTPPPQPPLISSMDSISQKSQGDVEKAVTELIIDFDANAEEEGPYEALYNAISCHSLDSMASGRSSDQDSTNKEAEAAGVKPAGVRPRERPPPPAKPPPDEEEEDHIDKKYFPLTASEVLSMRPRIHGSAAREEDEHPYELLLTAETKKVVLVDGKTKDHRRSSSSRSQDSAEGQDGQVPEQFSGLLHGSSPVCEVGQDPFQLLCTAGQSHPDGSPQQGACHKASMQLEETGVHAPGASQPSALDQSKRVGYLTGLPTTNSRSHPETLTHTASPHPGGAEEGDRSGARSRAPPTSKPKAELKLSRSLSKSDSDLLTCSPTEDATMGSRSESLSNCSIGKKRLEKSPSFASEWDEIEKIMSSIGEGIDFSQERQKISGLRTLEQSVGEWLESIGLQQYESKLLLNGFDDVHFLGSNVMEEQDLRDIGISDPQHRRKLLQAARSLPKVKALGYDGNSPPSVPSWLDSLGLQDYVHSFLSSGYSSIDTVKNLWELELVNVLKVQLLGHRKRIIASLADRPYEEPPQKPPRFSQLRCQDLLSQTSSPLSQNDSCTGRSADLLLPPGDTGRRRHDSLHDPAAPSRAERFRIQEEHREAKLTLRPPSLAAPYAPVQSWQHQPEKLIFESCGYEANYLGSMLIKDLRGTESTQDACAKMRKSTEHMKKIPTIILSITYKGVKFIDASNKNVIAEHEIRNISCAAQDPEDLCTFAYITKDLQTSHHYCHVFSTVDVNLTYEIILTLGQAFEVAYQLALQAQKSRATGASAAEMIETKSSKPVPKPRVGVRKSALEPPDMDQDAQSHASVSWVVDPKPDSKRSLSTN
EGFR-L858R mean [1]: 11.76
Wt/L858R [2]: 0.79
EGFR-Wt mean [3]: 9.27

B3: SH2D3C (protein, UniProt Q8N5H7 1-860, looked up)
SH2 domain-containing protein …: MTEGTKKTSKKFKFFKFKGFGSLSNLPRSFTLRRSSASISRQSHLEPDTFEATQDDMVTVPKSPPAYARSSDMYSHMGTMPRPSIKKAQNSQAARQAQEAGPKPNLVPGGVPDPPGLEAAKEVMVKATGPLEDTPAMEPNPSAVEVDPIRKPEVPTGDVEEERPPRDVHSERAAGEPEAGSDYVKFSKEKYILDSSPEKLHKELEEELKLSSTDLRSHAWYHGRIPREVSETLVQRNGDFLIRDSLTSLGDYVLTCRWRNQALHFKINKVVVKAGESYTHIQYLFEQESFDHVPALVRYHVGSRKAVSEQSGAIIYCPVNRTFPLRYLEASYGLGQGSSKPASPVSPSGPKGSHMKRRSVTMTDGLTADKVTRSDGCPTSTSLPRPRDSIRSCALSMDQIPDLHSPMSPISESPSSPAYSTVTRVHAAPAAPSATALPASPVARRSSEPQLCPGSAPKTHGESDKGPHTSPSHTLGKASPSPSLSSYSDPDSGHYCQLQPPVRGSREWAATETSSQQARSYGERLKELSENGAPEGDWGKTFTVPIVEVTSSFNPATFQSLLIPRDNRPLEVGLLRKVKELLAEVDARTLARHVTKVDCLVARILGVTKEMQTLMGVRWGMELLTLPHGRQLRLDLLERFHTMSIMLAVDILGCTGSAEERAALLHKTIQLAAELRGTMGNMFSFAAVMGALDMAQISRLEQTWVTLRQRHTEGAILYEKKLKPFLKSLNEGKEGPPLSNTTFPHVLPLITLLECDSAPPEGPEPWGSTEHGVEVVLAHLEAARTVAHHGGLYHTNAEVKLQGFQARPELLEVFSTEFQMRLLWGSQGASSSQARRYEKFDKVLTALSHKLEPAVRSSEL
EGFR-L858R mean [1]: 2.92
Wt/L858R [2]: 0.80
EGFR-Wt mean [3]: 2.33

B4: CTNND1 (protein, UniProt O60716 1-968, looked up)
Catenin delta-1: MDDSEVESTASILASVKEQEAQFEKLTRALEEERRHVSAQLERVRVSPQDANPLMANGTLTRRHQNGRFVGDADLERQKFSDLKLNGPQDHSHLLYSTIPRMQEPGQIVETYTEEDPEGAMSVVSVETSDDGTTRRTETTVKKVVKTVTTRTVQPVAMGPDGLPVDASSVSNNYIQTLGRDFRKNGNGGPGPYVGQAGTATLPRNFHYPPDGYSRHYEDGYPGGSDNYGSLSRVTRIEERYRPSMEGYRAPSRQDVYGPQPQVRVGGSSVDLHRFHPEPYGLEDDQRSMGYDDLDYGMMSDYGTARRTGTPSDPRRRLRSYEDMIGEEVPSDQYYWAPLAQHERGSLASLDSLRKGGPPPPNWRQPELPEVIAMLGFRLDAVKSNAAAYLQHLCYRNDKVKTDVRKLKGIPVLVGLLDHPKKEVHLGACGALKNISFGRDQDNKIAIKNCDGVPALVRLLRKARDMDLTEVITGTLWNLSSHDSIKMEIVDHALHALTDEVIIPHSGWEREPNEDCKPRHIEWESVLTNTAGCLRNVSSERSEARRKLRECDGLVDALIFIVQAEIGQKDSDSKLVENCVCLLRNLSYQVHREIPQAERYQEAAPNVANNTGPHAASCFGAKKGKDEWFSRGKKPIEDPANDTVDFPKRTSPARGYELLFQPEVVRIYISLLKESKTPAILEASAGAIQNLCAGRWTYGRYIRSALRQEKALSAIADLLTNEHERVVKAASGALRNLAVDARNKELIGKHAIPNLVKNLPGGQQNSSWNFSEDTVISILNTINEVIAENLEAAKKLRETQGIEKLVLINKSGNRSEKEVRAAALVLQTIWGYKELRKPLEKEGWKKSDFQVNLNNASRSQSSHSYDDSTLPLIDRNQKSDKKPDREEIQMSNMGSNTKSLDNNYSTPNERGDHNRTLDRSGDLGDMEPLKGTTPLMQDEGQESLEEELDVLVLDDEGGQVSYPSMQKI
EGFR-L858R mean [1]: 3.63
Wt/L858R [2]: 0.83
EGFR-Wt mean [3]: 3.00

B5: CDH5 (protein, UniProt P33151 48-784, looked up)
Cadherin-5: DWIWNQMHIDEEKNTSLPHHVGKIKSSVSRKNAKYLLKGEYVGKVFRVDAETGDVFAIERLDRENISEYHLTAVIVDKDTGENLETPSSFTIKVHDVNDNWPVFTHRLFNASVPESSAVGTSVISVTAVDADDPTVGDHASVMYQILKGKEYFAIDNSGRIITITKSLDREKQARYEIVVEARDAQGLRGDSGTATVLVTLQDINDNFPFFTQTKYTFVVPEDTRVGTSVGSLFVEDPDEPQNRMTKYSILRGDYQDAFTIETNPAHNEGIIKPMKPLDYEYIQQYSFIVEATDPTIDLRYMSPPAGNRAQVIINITDVDEPPIFQQPFYHFQLKENQKKPLIGTVLAMDPDAARHSIGYSIRRTSDKGQFFRVTKKGDIYNEKELDREVYPWYNLTVEAKELDSTGTPTGKESIVQVHIEVLDENDNAPEFAKPYQPKVCENAVHGQLVLQISAIDKDITPRNVKFKFILNTENNFTLTDNHDNTANITVKYGQFDREHTKVHFLPVVISDNGMPSRTGTSTLTVAVCKCNEQGEFTFCEDMAAQVGVSIQAVVAILLCILTITVITLLIFLRRRLRKQARAHGKSVPEIHEQLVTYDEEGGGEMDTTSYDVSVLNSVRRGGAKPPRPALDARPSLYAQVQKPPRHAPGAHGGPGEMAAMIEVKKDEADHDGDGPPYDTLHIYGYEGSESIAESLSSLGTDSSDSDVDYDFLNDWGPRFKMLAELYGSDPREELLY
EGFR-L858R mean [1]: 2.63
Wt/L858R [2]: 0.84
EGFR-Wt mean [3]: 2.22

B6: SOS2 (protein, UniProt Q07890 1-1332, looked up)
Son of sevenless homolog 2: MQQAPQPYEFFSEENSPKWRGLLVSALRKVQEQVHPTLSANEESLYYIEELIFQLLNKLCMAQPRTVQDVEERVQKTFPHPIDKWAIADAQSAIEKRKRRNPLLLPVDKIHPSLKEVLGYKVDYHVSLYIVAVLEYISADILKLAGNYVFNIRHYEISQQDIKVSMCADKVLMDMFDQDDIGLVSLCEDEPSSSGELNYYDLVRTEIAEERQYLRELNMIIKVFREAFLSDRKLFKPSDIEKIFSNISDIHELTVKLLGLIEDTVEMTDESSPHPLAGSCFEDLAEEQAFDPYETLSQDILSPEFHEHFNKLMARPAVALHFQSIADGFKEAVRYVLPRLMLVPVYHCWHYFELLKQLKACSEEQEDRECLNQAITALMNLQGSMDRIYKQYSPRRRPGDPVCPFYSHQLRSKHLAIKKMNEIQKNIDGWEGKDIGQCCNEFIMEGPLTRIGAKHERHIFLFDGLMISCKPNHGQTRLPGYSSAEYRLKEKFVMRKIQICDKEDTCEHKHAFELVSKDENSIIFAAKSAEEKNNWMAALISLHYRSTLDRMLDSVLLKEENEQPLRLPSPEVYRFVVKDSEENIVFEDNLQSRSGIPIIKGGTVVKLIERLTYHMYADPNFVRTFLTTYRSFCKPQELLSLLIERFEIPEPEPTDADKLAIEKGEQPISADLKRFRKEYVQPVQLRILNVFRHWVEHHFYDFERDLELLERLESFISSVRGKAMKKWVESIAKIIRRKKQAQANGVSHNITFESPPPPIEWHISKPGQFETFDLMTLHPIEIARQLTLLESDLYRKVQPSELVGSVWTKEDKEINSPNLLKMIRHTTNLTLWFEKCIVEAENFEERVAVLSRIIEILQVFQDLNNFNGVLEIVSAVNSVSVYRLDHTFEALQERKRKILDEAVELSQDHFKKYLVKLKSINPPCVPFFGIYLTNILKTEEGNNDFLKKKGKDLINFSKRRKVAEITGEIQQYQNQPYCLRIEPDMRRFFENLNPMGSASEKEFTDYLFNKSLEIEPRNCKQPPRFPRKSTFSLKSPGIRPNTGRHGSTSGTLRGHPTPLEREPCKISFSRIAETELESTVSAPTSPNTPSTPPVSASSDLSVFLDVDLNSSCGSNSIFAPVLLPHSKSFFSSCGSLHKLSEEPLIPPPLPPRKKFDHDASNSKGNMKSDDDPPAIPPRQPPPPKVKPRVPVPTGAFDGPLHSPPPPPPRDPLPDTPPPVPLRPPEHFINCPFNLQPPPLGHLHRDSDWLRDISTCPNSPSTPPSTPSPRVPRRCYVLSSSQNNLAHPPAPPVPPRQNSSPHLPKLPPKTYKRELSHPPLYRLPLLENAETPQ
EGFR-L858R mean [1]: 1.83
Wt/L858R [2]: 0.15
EGFR-Wt mean [3]: 0.28
